The results in this text go back to ChEMBL document CHEMBL2073850, “Human organic anion transporters and human organic cation transporters mediate renal transport of prostaglandins” (J Pharmacol Exp Ther, 2002).

Substrate in series [1]: CCCCC[C@H](O)/C=C/[C@@H]1[C@@H](C/C=C\CCCC(=O)O)[C@@H](O)C[C@H]1O
The series is described as follows: (§1) TP_TRANSPORTER: uptake in OAT4-expressing S2 cells. The class given is functional, cell-based.

Substrate in series [2]: CCCCC[C@H](O)/C=C/[C@H]1[C@H](O)CC(=O)[C@@H]1C/C=C\CCCC(=O)O
The description is as §1. The class given is functional, cell-based.

Substrate in series [3]: CCCCC[C@H](O)/C=C/[C@@H]1[C@@H](C/C=C\CCCC(=O)O)[C@@H](O)C[C@H]1O
The series is described as follows: (§2) TP_TRANSPORTER: uptake in OAT2-expressing S2 cells. The class given is functional, cell-based.

Substrate in series [4]: CCCCC[C@H](O)/C=C/[C@H]1[C@H](O)CC(=O)[C@@H]1C/C=C\CCCC(=O)O
Described as §2. The format is functional, cell-based.

Substrate in series [5]: CCCCC[C@H](O)/C=C/[C@@H]1[C@@H](C/C=C\CCCC(=O)O)[C@@H](O)C[C@H]1O
The series is described as follows: (§3) TP_TRANSPORTER: uptake in OAT3-expressing S2 cells. The format is functional, cell-based.

Substrate in series [6]: CCCCC[C@H](O)/C=C/[C@H]1[C@H](O)CC(=O)[C@@H]1C/C=C\CCCC(=O)O
Described as §3. The format is functional, cell-based.

Substrate in series [7]: CCCCC[C@H](O)/C=C/[C@@H]1[C@@H](C/C=C\CCCC(=O)O)[C@@H](O)C[C@H]1O
The series is described as follows: TP_TRANSPORTER: uptake in OAT1-expressing S2 cells. The class given is functional, cell-based.

Substrate in series [8]: CCCCC[C@H](O)/C=C/[C@H]1[C@H](O)CC(=O)[C@@H]1C/C=C\CCCC(=O)O
The series is described as follows: cells, lysate or membranes named.

Substrate in series [9]: CCCCC[C@H](O)/C=C/[C@@H]1[C@@H](C/C=C\CCCC(=O)O)[C@@H](O)C[C@H]1O
The series is described as follows: (§4) TP_TRANSPORTER: uptake in OCT2-expressing S2 cells. The format is functional, cell-based.

Substrate in series [10]: CCCCC[C@H](O)/C=C/[C@H]1[C@H](O)CC(=O)[C@@H]1C/C=C\CCCC(=O)O
The series is described as §4. The class given is functional, cell-based.

Substrate in series [11]: CCCCC[C@H](O)/C=C/[C@@H]1[C@@H](C/C=C\CCCC(=O)O)[C@@H](O)C[C@H]1O
The series is described as follows: (§5) TP_TRANSPORTER: uptake in OCT1-expressing S2 cells. The class given is functional, cell-based.

Substrate in series [12]: CCCCC[C@H](O)/C=C/[C@H]1[C@H](O)CC(=O)[C@@H]1C/C=C\CCCC(=O)O
The series is described as §5. The class given is functional, cell-based.

B1: Solute carrier family 22 member 11 (Homo sapiens) (protein)
chain: MAFSKLLEQAGGVGLFQTLQVLTFILPCLMIPSQMLLENFSAAIPGHRCWTHMLDNGSAVSTNMTPKALLTISIPPGPNQGPHQCRRFRQPQWQLLDPNATATSWSEADTEPCVDGWVYDRSVFTSTIVAKWDLVCSSQGLKPLSQSIFMSGILVGSFIWGLLSYRFGRKPMLSWCCLQLAVAGTSTIFAPTFVIYCGLRFVAAFGMAGIFLSSLTLMVEWTTTSRRAVTMTVVGCAFSAGQAALGGLAFALRDWRTLQLAASVPFFAISLISWWLPESARWLIIKGKPDQALQELRKVARINGHKEAKNLTIEVLMSSVKEEVASAKEPRSVLDLFCVPVLRWRSCAMLVVNFSLLISYYGLVFDLQSLGRDIFLLQALFGAVDFLGRATTALLLSFLGRRTIQAGSQAMAGLAILANMLVPQDLQTLRVVFAVLGKGCFGISLTCLTIYKAELFPTPVRMTADGILHTVGRLGAMMGPLILMSRQALPLLPPLLYGVISIASSLVVLFFLPETQGLPLPDTIQDLESQKSTAAQGNRQEAVTVESTSL
Regarding B1, the Michaelis constant (Km) stood at 0.692 µM in [1] and 0.154 µM in [2].

B2: Solute carrier family 22 member 7 (Homo sapiens) (protein)
chain: MGFEELLEQVGGFGPFQLRNVALLALPRVLLPLHFLLPIFLAAVPAHRCALPGAPANFSHQDVWLEAHLPREPDGTLSSCLRFAYPQALPNTTLGEERQSRGELEDEPATVPCSQGWEYDHSEFSSTIATESQWDLVCEQKGLNRAASTFFFAGVLVGAVAFGYLSDRFGRRRLLLVAYVSTLVLGLASAASVSYVMFAITRTLTGSALAGFTIIVMPLELEWLDVEHRTVAGVLSSTFWTGGVMLLALVGYLIRDWRWLLLAVTLPCAPGILSLWWVPESARWLLTQGHVKEAHRYLLHCARLNGRPVCEDSFSQEAVSKVAAGERVVRRPSYLDLFRTPRLRHISLCCVVVWFGVNFSYYGLSLDVSGLGLNVYQTQLLFGAVELPSKLLVYLSVRYAGRRLTQAGTLLGTALAFGTRLLVSSDMKSWSTVLAVMGKAFSEAAFTTAYLFTSELYPTVLRQTGMGLTALVGRLGGSLAPLAALLDGVWLSLPKLTYGGIALLAAGTALLLPETRQAQLPETIQDVERKSAPTSLQEEEMPMKQVQN
Turning to B2, the results for the Km in series [3] and in series [4] were 0.425 µM and 0.713 µM, respectively.

B3: Organic anion transporter 3 (Homo sapiens) (protein)
chain: MTFSEILDRVGSMGHFQFLHVAILGLPILNMANHNLLQIFTAATPVHHCRPPHNASTGPWVLPMGPNGKPERCLRFVHPPNASLPNDTQRAMEPCLDGWVYNSTKDSIVTEWDLVCNSNKLKEMAQSIFMAGILIGGLVLGDLSDRFGRRPILTCSYLLLAASGSGAAFSPTFPIYMVFRFLCGFGISGITLSTVILNVEWVPTRMRAIMSTALGYCYTFGQFILPGLAYAIPQWRWLQLTVSIPFFVFFLSSWWTPESIRWLVLSGKSSKALKILRRVAVFNGKKEEGERLSLEELKLNLQKEISLAKAKYTASDLFRIPMLRRMTFCLSLAWFATGFAYYSLAMGVEEFGVNLYILQIIFGGVDVPAKFITILSLSYLGRHTTQAAALLLAGGAILALTFVPLDLQTVRTVLAVFGKGCLSSSFSCLFLYTSELYPTVIRQTGMGVSNLWTRVGSMVSPLVKITGEVQPFIPNIIYGITALLGGSAALFLPETLNQPLPETIEDLENWSLRAKKPKQEPEVEKASQRIPLQPHGPGLGSS
As for B3, the Km in [5] stood at 1.09 µM; in series [6], 0.345 µM.

B4: Solute carrier family 22 member 6 (Homo sapiens) (protein)
chain: MAFNDLLQQVGGVGRFQQIQVTLVVLPLLLMASHNTLQNFTAAIPTHHCRPPADANLSKNGGLEVWLPRDRQGQPESCLRFTSPQWGLPFLNGTEANGTGATEPCTDGWIYDNSTFPSTIVTEWDLVCSHRALRQLAQSLYMVGVLLGAMVFGYLADRLGRRKVLILNYLQTAVSGTCAAFAPNFPIYCAFRLLSGMALAGISLNCMTLNVEWMPIHTRACVGTLIGYVYSLGQFLLAGVAYAVPHWRHLQLLVSAPFFAFFIYSWFFIESARWHSSSGRLDLTLRALQRVARINGKREEGAKLSMEVLRASLQKELTMGKGQASAMELLRCPTLRHLFLCLSMLWFATSFAYYGLVMDLQGFGVSIYLIQVIFGAVDLPAKLVGFLVINSLGRRPAQMAALLLAGICILLNGVIPQDQSIVRTSLAVLGKGCLAASFNCIFLYTGELYPTMIRQTGMGMGSTMARVGSIVSPLVSMTAELYPSMPLFIYGAVPVAASAVTVLLPETLGQPLPDTVQDLESRWAPTQKEAGIYPRKGKQTRQQQEHQKYMVPLQASAQEKNGL
In the case of B4, the Km turned out to be 0.575 µM in series [7] and 0.97 µM in series [8].

B5: Solute carrier family 22 member 2 (Homo sapiens) (protein)
chain: MPTTVDDVLEHGGEFHFFQKQMFFLLALLSATFAPIYVGIVFLGFTPDHRCRSPGVAELSLRCGWSPAEELNYTVPGPGPAGEASPRQCRRYEVDWNQSTFDCVDPLASLDTNRSRLPLGPCRDGWVYETPGSSIVTEFNLVCANSWMLDLFQSSVNVGFFIGSMSIGYIADRFGRKLCLLTTVLINAAAGVLMAISPTYTWMLIFRLIQGLVSKAGWLIGYILITEFVGRRYRRTVGIFYQVAYTVGLLVLAGVAYALPHWRWLQFTVSLPNFFFLLYYWCIPESPRWLISQNKNAEAMRIIKHIAKKNGKSLPASLQRLRLEEETGKKLNPSFLDLVRTPQIRKHTMILMYNWFTSSVLYQGLIMHMGLAGDNIYLDFFYSALVEFPAAFMIILTIDRIGRRYPWAASNMVAGAACLASVFIPGDLQWLKIIISCLGRMGITMAYEIVCLVNAELYPTFIRNLGVHICSSMCDIGGIITPFLVYRLTNIWLELPLMVFGVLGLVAGGLVLLLPETKGKALPETIEEAENMQRPRKNKEKMIYLQVQKLDIPLN
Regarding B5, the Km in series [9] was determined as 0.334 µM; in series [10] it was 0.0289 µM.

B6: Solute carrier family 22 member 1 (Homo sapiens) (protein)
chain: MPTVDDILEQVGESGWFQKQAFLILCLLSAAFAPICVGIVFLGFTPDHHCQSPGVAELSQRCGWSPAEELNYTVPGLGPAGEAFLGQCRRYEVDWNQSALSCVDPLASLATNRSHLPLGPCQDGWVYDTPGSSIVTEFNLVCADSWKLDLFQSCLNAGFLFGSLGVGYFADRFGRKLCLLGTVLVNAVSGVLMAFSPNYMSMLLFRLLQGLVSKGNWMAGYTLITEFVGSGSRRTVAIMYQMAFTVGLVALTGLAYALPHWRWLQLAVSLPTFLFLLYYWCVPESPRWLLSQKRNTEAIKIMDHIAQKNGKLPPADLKMLSLEEDVTEKLSPSFADLFRTPRLRKRTFILMYLWFTDSVLYQGLILHMGATSGNLYLDFLYSALVEIPGAFIALITIDRVGRIYPMAMSNLLAGAACLVMIFISPDLHWLNIIIMCVGRMGITIAIQMICLVNAELYPTFVRNLGVMVCSSLCDIGGIITPFIVFRLREVWQALPLILFAVLGLLAAGVTLLLPETKGVALPETMKDAENLGRKAKPKENTIYLKVQTSEPSGT
As for B6, the figures for the Km in series [11] and in series [12] were 0.477 µM and 0.657 µM, respectively.

Broadly, the Km is the substrate concentration at which the rate is half of its maximum.
